According to patent US20210171613A1 (NATIONAL RESEARCH COUNCIL OF CANADA, published 2021):
Where a chain is given by its changes, count along the chain named. Numbers in names are those of the source.

B1: A26.8 VHH mutant Q106F (VHH, not shown: small tags and cut ends)
VHH: QVKLEESGGGLVQAGGSLRLSCAASERTFSRYPVAWFRQAPGAEREFVAVISSTGTSTYYADSVKGRFTISRDNAKVTVYLQMNNLKREDTAVYFCAVNSQRTRLFDPNEYDYWGQGTQVTVSS
B2: A26.8 VHH mutant S53R (VHH, not shown: small tags and cut ends)
VHH: B1 VHH with S53R, F106Q
B3: A26.8 VHH mutant Q106L (VHH, not shown: small tags and cut ends)
VHH: B1 VHH with F106L
B4: A26.8 VHH mutant Q106W (VHH, not shown: small tags and cut ends)
VHH: B1 VHH with F106W
B5: A26.8 VHH mutant Q106Y (VHH, not shown: small tags and cut ends)
VHH: B1 VHH with F106Y

Target: T1, Clostridium difficile toxin A (TcdA) (Clostridium difficile, UniProt P16154 1-2710)
T1 construct: mature; also called full-length TcdA
Assay: SPR (Biacore 3000), VHH over immobilized TcdA, steady-state analysis
Description: (§1) Before surface plasmon resonance (SPR) binding experiments, IMAC-purified VHHs were subjected to de-salting and further purification by size-exclusion chromatography (SEC). Approximately 500 μg of each VHH was injected over a Superdex 75 Increase 10/300 GL SEC column (GE Healthcare) in Biacore running buffer HBS-EP (10 mM HEPES pH 7.4, 150 mM NaCl, 3 mM EDTA, 0.005% (v/v) P20; GE Healthcare) under the control of an ÄKTA FPLC at 0.8 mL/min. Monomeric VHH fractions were collected and analyzed for binding to TcdA using a Biacore 3000 SPR instrument (GE Healthcare). Approximately 4,500 resonance units (RUs) of TcdA (List Biological Laboratories, Campbell, Calif.) were immobilized on a CM5 sensor chip (GE Healthcare) using the conditions previously described (Hussack et al, 2011). HBS-EP running buffer was used for all binding studies and regeneration of TcdA surfaces. Next, various dilution ranges of VHHs (as low as 10 nM-0.5 nM to as high as 5 μM-50 nM) were injected over immobilized TcdA at a flow rate of 40 μL/min with 120 s contact time and 600 s dissociation. Reference-subtracted sensorgrams were analyzed with BIAevaluation software (GE Healthcare) and fit to a 1:1 binding model. In cases where rapid kₒₙ and koff rate constants were observed, equilibrium dissociation constants (KDs) were determined by steady-state analysis.

T1 sequence (P16154 whole entry): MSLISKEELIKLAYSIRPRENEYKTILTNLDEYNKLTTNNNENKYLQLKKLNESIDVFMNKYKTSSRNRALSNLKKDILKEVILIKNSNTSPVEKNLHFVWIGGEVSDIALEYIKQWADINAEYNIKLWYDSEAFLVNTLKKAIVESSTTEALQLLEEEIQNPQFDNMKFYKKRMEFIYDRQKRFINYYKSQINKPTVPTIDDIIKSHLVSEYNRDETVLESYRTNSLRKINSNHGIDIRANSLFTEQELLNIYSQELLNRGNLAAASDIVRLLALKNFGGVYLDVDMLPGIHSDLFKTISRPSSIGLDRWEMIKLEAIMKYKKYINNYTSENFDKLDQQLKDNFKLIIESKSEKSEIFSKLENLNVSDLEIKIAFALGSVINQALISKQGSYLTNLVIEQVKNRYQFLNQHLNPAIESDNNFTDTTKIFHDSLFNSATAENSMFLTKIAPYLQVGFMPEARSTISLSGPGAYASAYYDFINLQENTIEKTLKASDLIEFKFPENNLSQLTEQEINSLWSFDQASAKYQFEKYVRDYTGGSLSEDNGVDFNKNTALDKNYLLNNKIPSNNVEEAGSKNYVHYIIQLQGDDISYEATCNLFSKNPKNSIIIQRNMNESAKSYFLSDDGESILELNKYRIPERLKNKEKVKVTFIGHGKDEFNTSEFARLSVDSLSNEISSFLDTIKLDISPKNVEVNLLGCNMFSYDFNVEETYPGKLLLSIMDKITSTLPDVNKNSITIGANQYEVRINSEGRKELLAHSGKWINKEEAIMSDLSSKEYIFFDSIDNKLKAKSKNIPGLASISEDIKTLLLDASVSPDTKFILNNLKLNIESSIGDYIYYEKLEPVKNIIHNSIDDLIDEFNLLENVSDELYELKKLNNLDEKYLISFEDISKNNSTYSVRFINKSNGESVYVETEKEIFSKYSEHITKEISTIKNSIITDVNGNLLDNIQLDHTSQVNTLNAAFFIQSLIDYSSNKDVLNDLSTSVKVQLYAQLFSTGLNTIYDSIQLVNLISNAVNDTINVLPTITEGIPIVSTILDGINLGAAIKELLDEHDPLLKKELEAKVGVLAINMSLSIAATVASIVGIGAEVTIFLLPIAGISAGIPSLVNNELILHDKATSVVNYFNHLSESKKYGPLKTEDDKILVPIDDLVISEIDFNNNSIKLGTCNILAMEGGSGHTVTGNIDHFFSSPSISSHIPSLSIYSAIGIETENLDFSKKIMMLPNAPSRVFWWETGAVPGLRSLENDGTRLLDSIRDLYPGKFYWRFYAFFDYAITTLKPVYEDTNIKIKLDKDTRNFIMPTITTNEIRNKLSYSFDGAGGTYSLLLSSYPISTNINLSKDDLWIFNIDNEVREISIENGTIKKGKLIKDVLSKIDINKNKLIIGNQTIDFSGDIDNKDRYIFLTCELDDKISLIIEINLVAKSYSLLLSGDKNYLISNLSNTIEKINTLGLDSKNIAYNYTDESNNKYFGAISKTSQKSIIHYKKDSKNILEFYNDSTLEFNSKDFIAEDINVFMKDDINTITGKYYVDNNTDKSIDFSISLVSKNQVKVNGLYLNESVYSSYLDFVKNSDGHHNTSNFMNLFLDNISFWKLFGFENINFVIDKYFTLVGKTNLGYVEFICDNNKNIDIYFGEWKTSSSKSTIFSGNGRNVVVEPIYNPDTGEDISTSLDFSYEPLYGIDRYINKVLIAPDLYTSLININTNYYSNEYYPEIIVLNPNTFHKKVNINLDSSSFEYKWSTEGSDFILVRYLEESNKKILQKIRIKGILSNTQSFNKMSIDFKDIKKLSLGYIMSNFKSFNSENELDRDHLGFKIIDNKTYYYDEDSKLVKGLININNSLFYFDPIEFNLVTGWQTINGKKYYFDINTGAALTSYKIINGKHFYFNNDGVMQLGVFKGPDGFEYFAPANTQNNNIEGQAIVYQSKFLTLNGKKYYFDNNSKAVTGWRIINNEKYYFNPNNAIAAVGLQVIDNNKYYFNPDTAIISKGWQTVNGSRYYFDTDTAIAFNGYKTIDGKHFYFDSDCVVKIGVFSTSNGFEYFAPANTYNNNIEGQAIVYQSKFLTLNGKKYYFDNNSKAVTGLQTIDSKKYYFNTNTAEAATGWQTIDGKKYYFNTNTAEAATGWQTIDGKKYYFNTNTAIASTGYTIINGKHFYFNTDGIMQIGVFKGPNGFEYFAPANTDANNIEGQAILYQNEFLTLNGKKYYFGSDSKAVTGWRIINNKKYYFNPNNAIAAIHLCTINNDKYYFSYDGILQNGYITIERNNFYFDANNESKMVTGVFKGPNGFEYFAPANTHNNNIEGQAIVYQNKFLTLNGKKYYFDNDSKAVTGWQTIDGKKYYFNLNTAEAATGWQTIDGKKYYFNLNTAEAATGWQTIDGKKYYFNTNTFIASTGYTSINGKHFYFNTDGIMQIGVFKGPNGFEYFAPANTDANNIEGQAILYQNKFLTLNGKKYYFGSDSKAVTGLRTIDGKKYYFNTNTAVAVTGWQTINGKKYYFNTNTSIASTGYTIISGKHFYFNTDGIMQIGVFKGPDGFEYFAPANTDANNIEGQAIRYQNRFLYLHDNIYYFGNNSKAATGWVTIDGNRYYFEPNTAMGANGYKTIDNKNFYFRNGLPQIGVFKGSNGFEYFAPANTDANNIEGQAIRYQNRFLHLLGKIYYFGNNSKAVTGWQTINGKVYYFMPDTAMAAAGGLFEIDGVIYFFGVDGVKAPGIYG

Point of comparison: B4, Kd 1480 nM. Against it:
- B1 — 3.5-fold higher, 5130 nM
- B2 — 6.6-fold lower, 224 nM
- B3 — 2.4-fold lower, 612 nM
- B5 — 1.6-fold higher, 2320 nM

Target: T1, Clostridium difficile toxin A (TcdA)
Assay: SPR on immobilized TcdA
Description: as §1
The location of these mutations relative to the antigen epitope is illustrated in FIG. 2C.

Point of comparison: B2, “fold decrease in affinity relative to parent A26.8 VHH” value ~10 fold. Against it:
- B1 — higher, 30 to 300 fold
- B3 — higher, 30 to 300 fold

Target: T1, Clostridium difficile toxin A (TcdA)
Assay: SPR (Biacore 3000), VHH over immobilized TcdA; ratio of parent KD to mutant KD
Description: as §1

Point of comparison: B4, “KD^WT/KD” value 0.01. Against it:
- B1 — lower, 0.004
- B2 — higher, 0.08
- B3 — higher, 0.03
- B5 — lower, 0.008

Target: T1, Clostridium difficile toxin A (TcdA)
Assay: SPR (Biacore 3000), VHH over immobilized TcdA; binding free energy difference relative to parent VHH
Description: as §1

Point of comparison: B2, ΔΔG 1.45 kcal/mol. Against it:
- B1 — higher, 3.28 kcal/mol
- B3 — higher, 2.04 kcal/mol
- B4 — higher, 2.55 kcal/mol
- B5 — higher, 2.82 kcal/mol
